Test results reported in the DeepSol protein solubility set.

Assay: soluble on expression in E. coli; label from the status in PepcDB or PDB records

Sequence | soluble on expression in E. coli
MALRLAVSSALRPALNSQVRNASSAVSVKDVLASAPQAEVTTLKNGFRVVTEDNGSATATVGVWIETGSRFENEKNNGVAHFLERLIHKGTGKRASAALESELNAIGAKLNSFTERDQTAVFVQAGAQDVEKVVDILADVLRNSKLEASTIDTERVNLLKELEASDDYHQLVLFDMLHAAGFQGTPLALSVLGTSESIPNISAQQLKEWQEDHYRPVRMVLSAVGGGVSNVSSLADKYFGDLSNEYPRKVPQVDGTRFTGSEYRYRNDNVPHMYAAFAVEGVGYAHKDALALQIANQFIGQWDVTHATSRTAASRLVQKIGHDHGVHNLQHFNINYKDTGLFGIYFVADAHDLNDTSGIMKSVAHEWKHLASAATEEEVAMAKNQFRTNLYQNLETNTQKAGFNAKELLYTGNLRQLSELEAQIQKVDAGAVREAISRHVYDRDLAAVGVGRTEAFPNYALTRAGMSWWRM | not soluble
MALTTRRRALTTLGAALTGAVALPAGTALASQGGHGPRPLWRAHAHNDYEHPRPLLDALDHRFGSVEADIYLVGGQLLVAHDPEDLDPSRTLESLYLDPLAARVRAHHGRVYRRDRGSLQLLIDIKTEGEATYLELDRRLRRYKNLFTSYAHGRVFPGAVTAVVSGDRAARAPMAAQRSRRAFYDGRLTDLGTVAPASFVPLISDNWTLNFTWQGVGTFPAAERRRLRDIVGAAHARGQRVRFWATPDVAGPARDAVWAELLAAGVDHLNTDDLAGIEAFLDAHRDALEHHHHHH | soluble
MALVPVYCLCRQPYNVNHFMIECGLCQDWFHGSCVGIEEENAVDIDIYHCPDCEAVFGPSIMKNWH | soluble
MALVVQKYGGSSLESAERIRNVAERIVATKKAGNDVVVVCSAMGDTTDELLELAAAVNPVPPAREMDMLLTAGERISNALVAMAIESLGAEAQSFTGSQAGVLTTERHGNARIVDVTPGRVREALDEGKICIVAGFQGVNKETRDVTTLGRGGSDTTAVALAAALNADVCEIYSDVDGVYTADPRIVPNAQKLEKLSFEEMLELAAVGSKILVLRSVEYARAFNVPLRVRSSYSNDPGTLIAGSMEDIPVEEAVLTGVATDKSEAKVTVLGISDKPGEAAKVFRALADAEINIDMVLQNVSSVEDGTTDITFTCPRSDGRRAMEILKKLQVQGNWTNVLYDDQVGKVSLVGAGMKSHPGVTAEFMEALRDVNVNIELISTSEIRISVLIREDDLDAAARALHEQFQLGGEDEAVVYAGTGR | soluble
MALYQRWRCLRLQGLQACRLHTAVVSTPPRWLAERLGLFEELWAAQVKRLASMAQKEPRTIKISLPGGQKIDAVAWNTTPYQLARQISSTLADTAVAAQVNGEPYDLERPLETDSDLRFLTFDSPEGKAVFWHSSTHVLGAAAEQFLGAVLCRGPSTEYGFYHDFFLGKERTIRGSELPVLERICQELTAAARPFRRLEASRDQLRQLFKDNPFKLHLIEEKVTGPTATVYGCGTLVDLCQGPHLRHTGQIGGLKLLSNSSSLWRSSGAPETLQRVSGISFPTTELLRVWEAWREEAELRDHRRIGKEQELFFFHELSPGSCFFLPRGTRVYNALVAFIRAEYAHRGFSEVKTPTLFSTKLWEQSGHWEHYQEDMFAVQPPGSDRPPSSQSDDSTRHITDTLALKPMNCPAHCLMFAHRPRSWRELPLRLADFGALHRAEASGGLGGLTRLRCFQQDDAHIFCTTDQLEAEIQSCLDFLRSVYAVLGFSFRLALSTRPSGFLGDPCLWDQAEQVLKQALKEFGEPWDLNSGDGAFYGPKIDVHLHDALGRPHQCGTIQLDFQLPLRFDLQYKGQAGALERPVLIHRAVLGSVERLLGVLAESCGGKWPLWLSPFQVVVIPVGSEQEEYAKEAQQSLRAAGLVSDLDADSGLTLSRRIRRAQLAHYNFQFVVGQKEQSKRTVNIRTRDNRRLGEWDLPEAVQRLVELQNTRVPNAEEIF | soluble
MAMRHLSRSRDVTKRSTKKYIEEPLYNRLFKDGGTEVKVRQQLNQFLKGTKHVFKWEVGDTIKKLRNRGLYYPALKLSEVMEERGMNKTVSDQAIHLDLVAKAREITAGENYFVDLPETSKTELTYGSLLNCYCKELLTEKAEGLLNKMKELNITPSSMSYNSLMTLYTKTGETEKVPAMIQELKAENVMPDSYTYNVWMRALAATNDISGVERVIEEMNRDGRVAPDWTTYSNMASIYVDAGLSQKAEKALQELEMKNTQRDFTAYQFLITLYGRLGKLTEVYRIWRSLRLAIPKTSNVAYLNMIQVLVKLNDLPGAETLFKEWQANCSTYDIRIVNVLIGAYAQEGLIQKANELKEKAPRRGGKLNAKTWEIFMDYYVKSGDMARALECMSKAVSIGKGDGGKWLPSPETVRALMSYFEQKKDVNGAENLLEILKNGTDNIGAEIFEPLIRTYAAAGKSHPAMRRRLKMENVEVNEATKKLLDEVSQDV | soluble
